Biological target: Wild-type placental protein 13/galectin-13 (Gal-13) (human) (UniProt Q9UHV8)

B1: Wild-type placental protein 13/galectin-13 (Gal-13) (natural protein)
chain: MSSLPVPYKLPVSLSVGSCVIIKGTPIHSFINDPQLQVDFYTDMDEDSDIAFRFRVHFGNHVVMNRREFGIWMLEETTDYVPFEDGKQFELCIYVHYNEYEIKVNGIRIYGFVHRIPPSFVKMVQVSRDISLTSVCVCN
  hemagglutination of chicken erythrocytes, minimum agglutination concentration (MAC): 25 µg/mL
